Literature values as cited in patent publication US12251426B2 (priority 2020, dated 2025).

B1: Bovine lactoferrin: water-soluble protein obtainable through bovine milk (protein, UniProt P24627 20-708, looked up)
Lactotransferrin: APRKNVRWCTISQPEWFKCRRWQWRMKKLGAPSITCVRRAFALECIRAIAEKKADAVTLDGGMVFEAGRDPYKLRPVAAEIYGTKESPQTHYYAVAVVKKGSNFQLDQLQGRKSCHTGLGRSAGWIIPMGILRPYLSWTESLEPLQGAVAKFFSASCVPCIDRQAYPNLCQLCKGEGENQCACSSREPYFGYSGAFKCLQDGAGDVAFVKETTVFENLPEKADRDQYELLCLNNSRAPVDAFKECHLAQVPSHAVVARSVDGKEDLIWKLLSKAQEKFGKNKSRSFQLFGSPPGQRDLLFKDSALGFLRIPSKVDSALYLGSRYLTTLKNLRETAEEVKARYTRVVWCAVGPEEQKKCQQWSQQSGQNVTCATASTTDDCIVLVLKGEADALNLDGGYIYTAGKCGLVPVLAENRKSSKHSSLDCVLRPTEGYLAVAVVKKANEGLTWNSLKDKKSCHTAVDRTAGWNIPMGLIVNQTGSCAFDEFFSQSCAPGADPKSRLCALCAGDDQGLDKCVPNSKEKYYGYTGAFRCLAEDVGDVAFVKNDTVWENTNGESTADWAKNLNREDFRLLCLDGTRKPVTEAQSCHLAVAPNHAVVSRSDRAAHVKQVLLHQQALFGKNGKNCPDKFCLFKSETKNLLFNDNTECLAKLGGRPTYEEYLGTEYVTAIANLKKCSTSPLLEACAFLTR
In the case of B1, the water solubility is given as “water-soluble”.
